Source: patent US9168297B2, “Regulation of skin pigmentation by neuregulin-1 (NRG-1)” (The United States of America, as Represented by the …, priority 2010, dated 2015)

Tested on: HEM-DP melanocytes
Assay: Melanin content assay (melanin/protein)
Assay type: cell-based, human
Settings: NRG-1 50 ng/ml
Procedure: FIGS. 6A and 6B are bar graphs illustrating the effect of NRG-1 on the pigmentation of cultured human melanocytes. FIG. 6A) Lightly-pigmented (HEM-LP) and FIG. 6B) Darkly-pigmented (HEM-DP) melanocytes were treated with or without NRG-1 (50 ng/ml) for 1, 3, 5 or 9 days and proteins were extracted from each sample. After centrifugation at 10,000 g for 15 minutes, precipitates were analyzed for melanin content, and the supernatants were analyzed for protein content. Results are the average of three studies±SD; statistically significant differences are indicated.
FIGS. 9A and 9B are digital images illustrating the effect of pan-ERBB inhibitors on NRG-1 action on human melanocytes and MelanoDerms. FIG. 9A) HEM-DP melanocytes were treated for 9 days with 50 ng/ml NRG-1 in the presence of C39 (0.5 μM) or CI-1033 (2 μM) or vehicle (DMSO) alone. The results are the averages of 3 independent studies±SD. FIG. 9B) Dark MelanoDerms were treated for 9 days with 50 ng/ml NRG-1 in the presence of C39 (0.5 μM) or CI-1033 (2 μM) or vehicle (DMSO) alone. L values shown are the average of 3 spots measured in the center of each Melanoderm.
Melanin contents were determined by dissolving cell pellets overnight at room temperature in 200 μl 1 N NaOH, and melanin concentrations were quantitated by absorbance at 405 nm in a SpectraMax 250 ELISA reader (Molecular Devices) using a standard curve generated from synthetic melanin (Sigma-Aldrich, St. Louis, Mo.). Melanin content is expressed as μg melanin per μg protein. Each study was repeated at least three times.
The effects of NRG-1 on the pigmentation of human melanocytes were also examined. […] However, on day 9, when the cells had reached confluence, the pigmentation level of NRG-1-treated HEM-LP melanocytes was about 35% higher than the control (FIG. 6A).
The EGF domain of NRG-1 can activate the NRG-1 receptors. Two exemplary EGF domains of NRG-1 were aligned (SEQ ID NOs: 9 and 10) and 5 different […] peptides within these two sequences were designed (FIG. 12). Darkly-pigmented human epidermal melanocytes (HEM-DP) were treated with each of the […] peptides (100 nM) or the commercially available rhNRG-1 (6.25 nM) or the vehicle only (0.1% BSA in PBS) every other day for 7 days.
In particular, HEM-DP were treated with each of the 8-mer peptides (WC-6, […], amino acids 3-10 of SEQ ID NO: 10; WC-7, […], amino acids 8-15 of SEQ ID NO: 10; WC-8, […], amino acids 12-19 of SEQ ID NO: 10; WC-9, […], amino acids 16-23 of SEQ ID NO: 10; WC-10, […], amino acids 20-27 of SEQ ID NO: 10; 100 nM) or the full length EGF domain of NRG-1 (WC-11, SEQ ID NO: 10, 100 nM) or the commercially available rhNRG-1 (SEQ ID NO: 11, 6.25 nM) or vehicle only (0.1% BSA in PBS) every day for 9 days.

B1: NRG-1: commercially available recombinant human neuregulin-1 (rhNRG-1-β1, R&D Systems), SEQ ID NO: 11 (protein)
chain: TSHLVKCAEKEKTFCVNGGECFMVKDLSNPSRYLCKCPNEFTGDRCQNYVMASFYKHLGIEFMEAEELYQK
- Melanin content, NRG-1 alone (9 days, vehicle DMSO): stimulated melanin content
- Pigmentation level (day 9, vs controls): remained higher
- Pigmentation level (starting at day 5, subconfluent, vs controls): higher than the controls
